The target of test [1] is heavy chain (HC) of the 2-hep HMM construct of human β-cardiac myosin. The experiment in a line: stoichiometry of the purified complex.
Test [2] has as its target human β-cardiac short S1 (sS1) with a C-terminal GFP, wild type (human) (UniProt P12883). Kind of test: MST.
For test [3], the target named is actin. Kind of test: MST.
Test [4] has as its target full-length recombinant human cardiac MyBP-C, nonphosphorylated (human, UniProt Q14896 1-1274). The experiment in a line: MST.
The target in test [5] is T1, human β-cardiac short S1 (sS1) with a C-terminal GFP, wild type (human, UniProt P12883 1-808). The experiment in a line: MST.
Test [6] has as its target R249Q human β-cardiac sS1 with a C-terminal GFP (human, UniProt P12883 1-808, R249Q). Kind of test: MST.
Test [7] addresses R453C human β-cardiac sS1 with a C-terminal GFP (human, UniProt P12883 1-808, R453C). The experiment in a line: MST.
Test [8] addresses R403Q human β-cardiac sS1 with a C-terminal GFP (human, UniProt P12883 1-808, R403Q). The experiment in a line: MST.
For test [9], the target named is T1, human β-cardiac short S1 (sS1) with a …. Kind of test: MST. The source holds these as a separate data set.
Test [10] addresses MyBP-C (construct and phosphorylation state not told for these experiments) (human, UniProt Q14896 1-1274). The experiment in a line: MST.

Substitutions are numbered along the chain they refer to. Names may count otherwise. Read-outs that look alike come from different tables or passages of the source. Where only a bound is given, the exact number is not on record here.

One may read the stoichiometry N as a count of units in the complex or per binding partner. As usually defined, the Kd is a measure of binding affinity in units of concentration.

Chain of MyBP-C (construct and phosphorylation state not told for these experiments) (Q14896 whole entry): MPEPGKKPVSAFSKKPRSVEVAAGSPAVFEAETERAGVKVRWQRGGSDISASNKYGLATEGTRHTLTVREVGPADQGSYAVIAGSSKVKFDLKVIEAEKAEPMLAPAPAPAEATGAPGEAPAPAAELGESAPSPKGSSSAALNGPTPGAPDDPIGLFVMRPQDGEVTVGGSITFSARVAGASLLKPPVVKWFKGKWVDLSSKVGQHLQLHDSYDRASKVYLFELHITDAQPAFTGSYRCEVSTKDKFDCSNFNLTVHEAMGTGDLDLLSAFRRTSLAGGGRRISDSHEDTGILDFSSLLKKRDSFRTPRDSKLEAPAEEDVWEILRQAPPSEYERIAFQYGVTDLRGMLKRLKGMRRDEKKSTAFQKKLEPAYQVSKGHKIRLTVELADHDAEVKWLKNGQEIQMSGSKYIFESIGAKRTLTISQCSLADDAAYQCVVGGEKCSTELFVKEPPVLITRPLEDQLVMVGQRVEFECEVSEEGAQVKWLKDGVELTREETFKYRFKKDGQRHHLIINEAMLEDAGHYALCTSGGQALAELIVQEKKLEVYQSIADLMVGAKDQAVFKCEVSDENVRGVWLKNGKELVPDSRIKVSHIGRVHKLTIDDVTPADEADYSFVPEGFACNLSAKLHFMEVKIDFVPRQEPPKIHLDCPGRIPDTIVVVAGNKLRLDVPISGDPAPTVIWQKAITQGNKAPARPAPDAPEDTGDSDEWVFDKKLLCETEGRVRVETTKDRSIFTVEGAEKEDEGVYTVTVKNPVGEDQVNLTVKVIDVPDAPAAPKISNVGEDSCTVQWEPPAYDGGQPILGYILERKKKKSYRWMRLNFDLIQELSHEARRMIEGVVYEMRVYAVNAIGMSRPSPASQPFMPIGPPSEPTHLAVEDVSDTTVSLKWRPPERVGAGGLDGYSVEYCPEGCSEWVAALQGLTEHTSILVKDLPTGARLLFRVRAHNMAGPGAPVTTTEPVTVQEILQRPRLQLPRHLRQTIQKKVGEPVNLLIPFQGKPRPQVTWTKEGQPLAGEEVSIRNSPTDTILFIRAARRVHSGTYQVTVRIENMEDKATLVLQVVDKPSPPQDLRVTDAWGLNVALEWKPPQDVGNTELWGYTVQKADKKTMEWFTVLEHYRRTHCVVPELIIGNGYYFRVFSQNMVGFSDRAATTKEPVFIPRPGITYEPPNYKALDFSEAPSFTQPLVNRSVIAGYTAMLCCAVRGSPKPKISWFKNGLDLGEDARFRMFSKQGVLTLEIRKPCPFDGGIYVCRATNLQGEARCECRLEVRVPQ
Chain of full-length recombinant human cardiac MyBP-C, nonphosphorylated (Q14896 whole entry): as above

“human cardiac myosin essential light chain (ELC) (from UniProt P08590 1-195) (natural protein)” registered a stoichiometry N in test [1] of 1.

Molecule actin (natural protein) had a Kd in test [2] of 0.25 µM.

Take “MyBP-C (construct and phosphorylation state not told for these experiments) (from UniProt Q14896 1-1274) (natural protein)”: in test [3], the Kd came out at 5 µM.

B1: human β-cardiac short S1 (sS1) labelled with Cy5 on cysteine residues (domain or fragment, UniProt P12883 1-808, looked up)
chain: MGDSEMAVFGAAAPYLRKSEKERLEAQTRPFDLKKDVFVPDDKQEFVKAKIVSREGGKVTAETEYGKTVTVKEDQVMQQNPPKFDKIEDMAMLTFLHEPAVLYNLKDRYGSWMIYTYSGLFCVTVNPYKWLPVYTPEVVAAYRGKKRSEAPPHIFSISDNAYQYMLTDRENQSILITGESGAGKTVNTKRVIQYFAVIAAIGDRSKKDQSPGKGTLEDQIIQANPALEAFGNAKTVRNDNSSRFGKFIRIHFGATGKLASADIETYLLEKSRVIFQLKAERDYHIFYQILSNKKPELLDMLLITNNPYDYAFISQGETTVASIDDAEELMATDNAFDVLGFTSEEKNSMYKLTGAIMHFGNMKFKLKQREEQAEPDGTEEADKSAYLMGLNSADLLKGLCHPRVKVGNEYVTKGQNVQQVIYATGALAKAVYERMFNWMVTRINATLETKQPRQYFIGVLDIAGFEIFDFNSFEQLCINFTNEKLQQFFNHHMFVLEQEEYKKEGIEWTFIDFGMDLQACIDLIEKPMGIMSILEEECMFPKATDMTFKAKLFDNHLGKSANFQKPRNIKGKPEAHFSLIHYAGIVDYNIIGWLQKNKDPLNETVVGLYQKSSLKLLSTLFANYAGADAPIEKGKGKAKKGSSFQTVSALHRENLNKLMTNLRSTHPHFVRCIIPNETKSPGVMDNPLVMHQLRCNGVLEGIRICRKGFPNRILYGDFRQRYRILNPAAIPEGQFIDSRKGAEKLLSSLDIDHNQYKFGHTKVFFKAGLLGLLEEMRDERLSRIITRIQAQSRGVLARMEYKKLLERR
modifications: Cy5-labeled cysteine residues
With B1, the Kd in test [4] is 17 ± 2 µM.

B2: proximal part of human cardiac myosin subfragment 2 (proximal S2), wild type (domain or fragment, UniProt P12883 841-966, looked up)
chain: KSAEREKEMASMKEEFTRLKEALEKSEARRKELEEKMVSLLQEKNDLQLQVQAEQDNLADAEERCDQLIKNKIQLEAKVKEMNERLEDEEEMNAELTAKKRKLEDECSELKRDIDDLELTLAKVEK
Consider B2, for which the Kd in test [5] was 46 ± 7 µM; in test [6], above 300 µM; in [7], above 90 µM; in [8] it was 54 ± 4 µM; in test [9] it was 4 ± 1 µM.

B3: proximal S2 of human cardiac myosin labelled with Cy5 (domain or fragment, UniProt P12883 841-966, looked up)
chain: B2 chain
modifications: Cy5 (site not stated)
B3 had a dissociation constant (Kd) in test [10] of around 7 µM.

B4: R870H mutant proximal S2 of human cardiac myosin (domain or fragment, UniProt P12883 841-966, looked up)
chain: B2 chain with R30H
Molecule B4 displayed a Kd in test [5] of 59 ± 2 µM.

B5: human cardiac myosin regulatory light chain (RLC) (natural protein)
chain: MAPKKAKKRAGGANSNVFSMFEQTQIQEFKEAFTIMDQNRDGFIDKNDLRDTFAALGRVNVKNEEIDEMIKEAPGPINFTVFLTMFGEKLKGADPEETILNAFKVFDPEGKGVLKADYVREMLTTQAERFSKEEVDQMFAAFPPDVTGNLDYKNLVHIITHGEEKD
B5: the stoichiometry N in [1] came to 1.

(Values after PMC5737966 (Nature structural & molecular biology, 2017).)
